“And” between values parts separate entries of the source, which are not always exact repeats. Equal values may be shown once.
What was measured:
human GPRC5D [1] = target: T1, human GPRC5D (human, UniProt Q9NZD1 1-345); test: cell-based or functional assay
human GPRC5D [2] = target: T1, human GPRC5D; test: cell ELISA, CHO hu GPRC5D (EC/IC50 rel)
Protocol: Stable transfected CHO clones expressing either human GPRCSD or cynomolgus GPRCSD or murine GPRCSD or human GPRCSA were used to analyze the binding of potential lead candidate antibodies as IgGs. In detail, 10⁴ cells (viability≥98%) were seeded into 384 well-microtiter plates (BD Poly D-Lysin, #356662, volume: 25 μl/well) using fresh culture medium. After overnight incubation at 37° C., 25 μl/well dilutions of antibodies were added (15×1:3 dilutions in 1×PBS, assay conc. starts at 30 μg/ml) to the cells for 2 hours at 4° C. After one washing step using 90 μl/well PBST (10×PBS, Roche, #11666789001+0.1% Tween 20), cells were subsequently fixed by the addition of 50 μl/well 0.05% glutaraldehyde (Sigma Cat. No: G5882 in 1×PBS) for 10 min at room temperature (RT). After three additional washing steps using 90 μl/well PBST, secondary antibodies were added for detection: for human antibodies goat anti-human Ig a chain antibody HRP conjugate (Millipore #AP502P) diluted 1:2000 in blocking buffer (1×PBS (Roche #11666789001)+2% BSA (Bovine Serum Albumin Fraction V, fatty acid free, Roche, #10735086001)+0.05% Tween 20) was used (25 μl/well). […] After incubation for 1 h at RT and three additional washing steps using 90 μl/well PBST, 25 μl/well TMB substrate was added (Roche order no. 11835033001) for 10 min and color development to final ODs was determined by measurement at 370 nm/492 nm.
For the characterization of the humanization variants of the VH and VL domains of the GPRC5D binders the ELISA protocol as described above was used (see Example 7). The data are summarized in the table 10 for the humanization variants of 5E11 and in table 11 for the humanization variants of 5F11.

T1 sequence (Q9NZD1 whole entry): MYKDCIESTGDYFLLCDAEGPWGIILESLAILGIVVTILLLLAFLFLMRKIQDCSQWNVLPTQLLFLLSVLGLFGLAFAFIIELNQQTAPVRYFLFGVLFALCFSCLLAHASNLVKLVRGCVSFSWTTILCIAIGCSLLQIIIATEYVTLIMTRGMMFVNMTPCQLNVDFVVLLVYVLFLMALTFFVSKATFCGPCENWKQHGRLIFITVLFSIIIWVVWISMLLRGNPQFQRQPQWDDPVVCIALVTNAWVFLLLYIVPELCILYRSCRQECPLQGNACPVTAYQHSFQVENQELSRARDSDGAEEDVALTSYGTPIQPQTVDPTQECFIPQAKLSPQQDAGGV

Binder	CAR-J2 EC50 [ng/mL] (PGLALA-CAR-J activation, L363 target cells) (human GPRC5D [1])	EC50 (human GPRC5D [2])
P1AE5751 (antibody, V domains shown, Humanized 5F11 IgG; PGLALA Fc implied by the CAR-J assay; also called 5F11_VH1d + 5F11_VL1b) VH: EVQLVESGGGVVQPGRSLRLSCAASGFSFSNYGMAWVRQAPGKGLEWVASISTGGGNTYYADSVKGRFTISRDNAKNTLYLQMNSLRAEDTAVYYCTRHDRGGLYWGQGTMVTVSS VL: DIVMTQSPLSLPVTPGEPASISCRSSKSLLHSNGITYVYWYLQKPGKSPQVLIYRMSNLASGVPDRFSGSGSGTDFTLKISRVEAEDVGVYHCGQLLENPYTFGQGTKLEIK	6.44	0.0124 µg/mL and 0.08 nM
P1AE5742 (antibody, V domains shown, Humanized 5F11 IgG; PGLALA Fc implied by the CAR-J assay; also called 5F11_VH1b + 5F11_VL2b) VH: EVQLVESGGGVVQPGRSLRLSCAASGFSFSNYGMAWVRQAPGKGLEWVASISTGGGNTYYRDSVKGRFTISRDNAKNTLYLQMNSLRAEDTAVYYCTRHDRGGLYWGQGTMVTVSS VL: DIVMTQSPDSLAVSLGERATINCKSSKSLLHSNGITYVYWYQQKPGQPPKLLIYRMSNLASGVPDRFSGSGSGTDFTLTISSLQAEDVAVYHCGQLLENPYTFGQGTKLEIK	61.9	0.0061 µg/mL and 0.04 nM
P1AE5743 (antibody, V domains shown, Humanized 5F11 IgG; PGLALA Fc implied by the CAR-J assay; also called 5F11_VH1b + 5F11_VL2c) VH: EVQLVESGGGVVQPGRSLRLSCAASGFSFSNYGMAWVRQAPGKGLEWVASISTGGGNTYYRDSVKGRFTISRDNAKNTLYLQMNSLRAEDTAVYYCTRHDRGGLYWGQGTMVTVSS VL: EIVLTQSPGTLSLSPGERATLSCRASKSLLHSNGITYVYWYQQKPGQAPRLLIYRMSNLASGIPDRFSGSGSGTDFTLTISRLEPEDFAVYHCGQLLENPYTFGQGTKLEIK	583	0.0076 µg/mL and 0.05 nM
P1AE5738 (antibody, V domains shown, Humanized 5F11 IgG; PGLALA Fc implied by the CAR-J assay; also called 5F11_VH1a + 5F11_VL2c) VH: QVQLVESGGGVVQPGRSLRLSCAASGFSFSNYGMAWVRQAPGKGLEWVASISTGGGNTYYRDSVKGRFTISRDNSKNTLYLQMNSLRAEDTAVYYCTRHDRGGLYWGQGTMVTVSS VL: EIVLTQSPGTLSLSPGERATLSCRASKSLLHSNGITYVYWYQQKPGQAPRLLIYRMSNLASGIPDRFSGSGSGTDFTLTISRLEPEDFAVYHCGQLLENPYTFGQGTKLEIK	397	0.0041 µg/mL and 0.03 nM
P1AE5749 (antibody, V domains shown, Humanized 5F11 IgG; PGLALA Fc implied by the CAR-J assay; also called 5F11_VH1c + 5F11_VL2c) VH: QVQLVESGGGVVQPGRSLRLSCAASGFSFSNYGMAWVRQAPGKGLEWVASISTGGGNTYYADSVKGRFTISRDNSKNTLYLQMNSLRAEDTAVYYCTRHDRGGLYWGQGTMVTVSS VL: EIVLTQSPGTLSLSPGERATLSCRASKSLLHSNGITYVYWYQQKPGQAPRLLIYRMSNLASGIPDRFSGSGSGTDFTLTISRLEPEDFAVYHCGQLLENPYTFGQGTKLEIK	82.6	0.0074 µg/mL and 0.05 nM
P1AE5747 (antibody, V domains shown, Humanized 5F11 IgG; PGLALA Fc implied by the CAR-J assay; also called 5F11_VH1c + 5F11_VL2b) VH: QVQLVESGGGVVQPGRSLRLSCAASGFSFSNYGMAWVRQAPGKGLEWVASISTGGGNTYYADSVKGRFTISRDNSKNTLYLQMNSLRAEDTAVYYCTRHDRGGLYWGQGTMVTVSS VL: DIVMTQSPDSLAVSLGERATINCKSSKSLLHSNGITYVYWYQQKPGQPPKLLIYRMSNLASGVPDRFSGSGSGTDFTLTISSLQAEDVAVYHCGQLLENPYTFGQGTKLEIK	183	0.009 µg/mL and 0.06 nM
P1AE5737 (antibody, V domains shown, Humanized 5F11 IgG; PGLALA Fc implied by the CAR-J assay; also called 5F11_VH1a + 5F11_VL2b) VH: QVQLVESGGGVVQPGRSLRLSCAASGFSFSNYGMAWVRQAPGKGLEWVASISTGGGNTYYRDSVKGRFTISRDNSKNTLYLQMNSLRAEDTAVYYCTRHDRGGLYWGQGTMVTVSS VL: DIVMTQSPDSLAVSLGERATINCKSSKSLLHSNGITYVYWYQQKPGQPPKLLIYRMSNLASGVPDRFSGSGSGTDFTLTISSLQAEDVAVYHCGQLLENPYTFGQGTKLEIK	2.95	0.0059 µg/mL and 0.04 nM

Results, then the binder that gave them:

CAR-J2 EC50 [ng/mL] (PGLALA-CAR-J activation, L363 target cells) (human GPRC5D [1])	EC50 (human GPRC5D [2])	Binder
84.2	0.0046 µg/mL and 0.03 nM	P1AE5762 (antibody, V domains shown, Humanized 5F11 IgG; PGLALA Fc implied by the CAR-J assay; also called 5F11_VH2d + 5F11_VL2a) VH: EVQLVESGGGLVQPGGSLRLSCAASGFSFSNYGMAWVRQAPGKGLEWVASISTGGGNTYYADSVKGRFTISRDNAKNTLYLQMNSLRAEDTAVYYCTRHDRGGLYWGQGTMVTVSS VL: DIVMTQSPLSLPVTPGEPASISCRSSKSLLHSNGITYVYWYLQKPGQSPQLLIYRMSNRASGVPDRFSGSGSGTDFTLKISRVEAEDVGVYHCGQLLENPYTFGQGTKLEIK
145	0.0029 µg/mL and 0.02 nM	P1AE5757 (antibody, V domains shown, Humanized 5F11 IgG; PGLALA Fc implied by the CAR-J assay; also called 5F11_VH2b + 5F11_VL2a) VH: EVQLVESGGGLVQPGGSLRLSCAASGFSFSNYGMAWVRQAPGKGLEWVASISTGGGNTYYRDSVKGRFTISRDNAKNTLYLQMNSLRAEDTAVYYCTRHDRGGLYWGQGTMVTVSS VL: DIVMTQSPLSLPVTPGEPASISCRSSKSLLHSNGITYVYWYLQKPGQSPQLLIYRMSNRASGVPDRFSGSGSGTDFTLKISRVEAEDVGVYHCGQLLENPYTFGQGTKLEIK
190	0.0026 µg/mL and 0.02 nM	P1AE5758 (antibody, V domains shown, Humanized 5F11 IgG; PGLALA Fc implied by the CAR-J assay; also called 5F11_VH2b + 5F11_VL2b) VH: EVQLVESGGGLVQPGGSLRLSCAASGFSFSNYGMAWVRQAPGKGLEWVASISTGGGNTYYRDSVKGRFTISRDNAKNTLYLQMNSLRAEDTAVYYCTRHDRGGLYWGQGTMVTVSS VL: DIVMTQSPDSLAVSLGERATINCKSSKSLLHSNGITYVYWYQQKPGQPPKLLIYRMSNLASGVPDRFSGSGSGTDFTLTISSLQAEDVAVYHCGQLLENPYTFGQGTKLEIK
509	0.0062 µg/mL and 0.04 nM	P1AE5752 (antibody, V domains shown, Humanized 5F11 IgG; PGLALA Fc implied by the CAR-J assay; also called 5F11_VH1d + 5F11_VL2a) VH: EVQLVESGGGVVQPGRSLRLSCAASGFSFSNYGMAWVRQAPGKGLEWVASISTGGGNTYYADSVKGRFTISRDNAKNTLYLQMNSLRAEDTAVYYCTRHDRGGLYWGQGTMVTVSS VL: DIVMTQSPLSLPVTPGEPASISCRSSKSLLHSNGITYVYWYLQKPGQSPQLLIYRMSNRASGVPDRFSGSGSGTDFTLKISRVEAEDVGVYHCGQLLENPYTFGQGTKLEIK
190	0.004 µg/mL and 0.03 nM	P1AE5760 (antibody, V domains shown, Humanized 5F11 IgG; PGLALA Fc implied by the CAR-J assay; also called 5F11_VH2d + 5F11_VL1a) VH: EVQLVESGGGLVQPGGSLRLSCAASGFSFSNYGMAWVRQAPGKGLEWVASISTGGGNTYYADSVKGRFTISRDNAKNTLYLQMNSLRAEDTAVYYCTRHDRGGLYWGQGTMVTVSS VL: DIVMTQSPLSLPVTPGEPASISCRSSKSLLHSNGITYVYWYLQKPGQSPQVLIYRMSNLASGVPDRFSGSGSGTDFTLKISRVEAEDVGVYHCGQLLENPYTFGQGTKLEIK
30	0.0104 µg/mL and 0.07 nM	P1AE5753 (antibody, V domains shown, Humanized 5F11 IgG; PGLALA Fc implied by the CAR-J assay; also called 5F11_VH1d + 5F11_VL2b) VH: EVQLVESGGGVVQPGRSLRLSCAASGFSFSNYGMAWVRQAPGKGLEWVASISTGGGNTYYADSVKGRFTISRDNAKNTLYLQMNSLRAEDTAVYYCTRHDRGGLYWGQGTMVTVSS VL: DIVMTQSPDSLAVSLGERATINCKSSKSLLHSNGITYVYWYQQKPGQPPKLLIYRMSNLASGVPDRFSGSGSGTDFTLTISSLQAEDVAVYHCGQLLENPYTFGQGTKLEIK
74.6	0.0037 µg/mL and 0.02 nM	P1AE5761 (antibody, V domains shown, Humanized 5F11 IgG; PGLALA Fc implied by the CAR-J assay; also called 5F11_VH2d + 5F11_VL1b) VH: EVQLVESGGGLVQPGGSLRLSCAASGFSFSNYGMAWVRQAPGKGLEWVASISTGGGNTYYADSVKGRFTISRDNAKNTLYLQMNSLRAEDTAVYYCTRHDRGGLYWGQGTMVTVSS VL: DIVMTQSPLSLPVTPGEPASISCRSSKSLLHSNGITYVYWYLQKPGKSPQVLIYRMSNLASGVPDRFSGSGSGTDFTLKISRVEAEDVGVYHCGQLLENPYTFGQGTKLEIK
170	0.0078 µg/mL and 0.05 nM	P1AE5756 (antibody, V domains shown, Humanized 5F11 IgG; PGLALA Fc implied by the CAR-J assay; also called 5F11_VH2b + 5F11_VL1b) VH: EVQLVESGGGLVQPGGSLRLSCAASGFSFSNYGMAWVRQAPGKGLEWVASISTGGGNTYYRDSVKGRFTISRDNAKNTLYLQMNSLRAEDTAVYYCTRHDRGGLYWGQGTMVTVSS VL: DIVMTQSPLSLPVTPGEPASISCRSSKSLLHSNGITYVYWYLQKPGKSPQVLIYRMSNLASGVPDRFSGSGSGTDFTLKISRVEAEDVGVYHCGQLLENPYTFGQGTKLEIK
152	0.0078 µg/mL and 0.05 nM	P1AE5755 (antibody, V domains shown, Humanized 5F11 IgG; PGLALA Fc implied by the CAR-J assay; also called 5F11_VH2b + 5F11_VL1a) VH: EVQLVESGGGLVQPGGSLRLSCAASGFSFSNYGMAWVRQAPGKGLEWVASISTGGGNTYYRDSVKGRFTISRDNAKNTLYLQMNSLRAEDTAVYYCTRHDRGGLYWGQGTMVTVSS VL: DIVMTQSPLSLPVTPGEPASISCRSSKSLLHSNGITYVYWYLQKPGQSPQVLIYRMSNLASGVPDRFSGSGSGTDFTLKISRVEAEDVGVYHCGQLLENPYTFGQGTKLEIK
